Data set [1] concerns the molecule itself. As to the kind of experiment: sedimentation assay of polymers.
Data set [2] deals with the molecule itself. As to the kind of experiment: sedimentation assay of polymers. This is another data set of the same source.

Changes are numbered by the printed parent chain. Names and notes keep the numbering of the source. Like-named read-outs stand apart in the source and are kept apart here.

B1: FtsZ (wild type, Escherichia coli) (natural protein, E. coli, UniProt P0A9A6 1-383, looked up)
chain: MFEPMELTNDAVIKVIGVGGGGGNAVEHMVRERIEGVEFFAVNTDAQALRKTAVGQTIQIGSGITKGLGAGANPEVGRNAADEDRDALRAALEGADMVFIAAGMGGGTGTGAAPVVAEVAKDLGILTVAVVTKPFNFEGKKRMAFAEQGITELSKHVDSLITIPNDKLLKVLGRGISLLDAFGAANDVLKGAVQGIAELITRPGLMNVDFADVRTVMSEMGYAMMGSGVASGEDRAEEAAEMAISSPLLEDIDLSGARGVLVNITAGFDLRLDEFETVGNTIRAFASDNATVVIGTSLDPDMNDELRVTVVATGIGMDKRPEITLVTNKQVQQPVMDRYQQHGMAPLTQEQKPVAKVVNDNAPQTAKEPDYLDIPAFLRKQAD
For the protein B1, in data set [1], the binding result is “binds”.

B2: FtsZ_(L169R) (Escherichia coli FtsZ with the L169R lesion) (natural protein, E. coli, UniProt P0A9A6 1-383, looked up)
chain: B1 chain with L169R
Take B2: the binding result in data set [2] was “binds”.

The values are drawn from paper PMC4641749 (Molecular microbiology, 2015).
